Drawing on PMC4414177 (2015), this text covers Kd for six molecules.

The chains are these.
B1: TRAF2 CTD (protein)
chain: DQDKIEALSSKVQQLERSIGLKDLAMADLEQKVLEMEASTYDGVFIWKISDFARKRQEAVAGRIPAIFSPAFYTSRYGYKMCLRIYLNGDGTGRGTHLSLFFVVMKGPNDALLRWPFNQKVTLMLLDQNNREHVIDAFRPDVTSSSFQRPVNDMNIASGCPLFCPVSKMEAKNSYVRDDAIFIKAIVDLTGL
modifications: 1 mM GSH+8 μM MC3181
B2: TRAF2 CTD (protein)
chain: B1 chain
B3: TRAF2 CTD (protein)
chain: B1 chain
modifications: 1 mM GSH
B4: JNK1α2 (protein)
chain: MSRSKRDNNFYSVEIGDSTFTVLKRYQNLKPIGSGAQGIVCAAYDAILERNVAIKKLSRPFQNQTHAKRAYRELVLMKCVNHKNIIGLLNVFTPQKSLEEFQDVYIVMELMDANLCQVIQMELDHERMSYLLYQMLCGIKHLHSAGIIHRDLKPSNIVVKSDCTLKILDFGLARTAGTSFMMTPYVVTRYYRAPEVILGMGYKENVDLWSVGCIMGEMVCHKILFPGRDYIDQWNKVIEQLGTPCPEFMKKLQPTVRTYVENRPKYAGYSFEKLFPDVLFPADSEHNKLKASQARDLLSKMLVIDASKRISVDEALQHPYINVWYDPSEAEAPPPKIPDKQLDEREHTIEEWKELIYKEVMDLEERTKNGVIRGQPSPLGAAVINGSQHPSSSSSVNDVSSMSTDPTLASDTDSSLEAAAGPLGCCR
modifications: 1 mM GSH
B5: JNK1α2 (protein)
chain: B4 chain
B6: JNK1α2 (protein)
chain: B4 chain
modifications: 1 mM GSH+8 μM MC3181

In general, Kd refers to the equilibrium constant for the complex coming apart.

For the assay, the target named is GSTP1-1 (Homo sapiens, UniProt P09211). The assay is described as follows: ELISA. On the technique in general: An ELISA detects its analyte on a solid surface through an enzyme-linked reagent.
B1 had a Kd greater than 10 µM.
Molecule B2 displayed a Kd of 0.28 µM.
The same measure for B3: 3 µM.
As for B4, the Kd came to 2.2 µM.
In turn, B5 yielded a Kd of 0.42 µM.
As to B6, the equilibrium dissociation constant (Kd) was greater than 5 µM.
